35 molecules from patent US20140235701, “NGF APTAMER AND APPLICATION THEREOF” (RIBOMIC INC., published 2014) can be followed below.

Holding throughout (conditions): tags: R&D Systems; chain copies: 2
For series [1], the target named is T1, NGF (nerve growth factor) (Homo sapiens, UniProt P01138 P01138:122-241). The experiment in a line: SPR; more than 40N control. On the procedure: As the measuring apparatus, BIAcore2000 manufactured by BIAcore was used and, as the sensor chip, CM5 that reacts with an amino group was used. […] For the reaction of an amino group on the protein side and a carboxyl group on the chip side, ethyl-3-carbodiimide hydrochloride and N-hydroxysuccinimide were used. After the reaction, blocking by ethanolamine-HCl was performed. The immobilized amount of NGF was set to 3,000-4,000 RU. An aptamer for analyte was prepared to 0.15 μM-0.5 μM. As a running buffer, solution A was used. Here, solution A is a mixed solution of 145 mM sodium chloride, 5.4 mM potassium chloride, 1.8 mM calcium chloride, 0.8 mM magnesium chloride, 20 mM Tris (pH 7.6), 0.05% Tween 20. As a regeneration solution, a mixed solution of 1M NaCl and 50 mM NaOH was used. NGF was immobilized on FC2, and the results of FC1 were subtracted to give a final sensorgram.
The measurement was as shown in Examples 1 and 2 and the surface plasmon resonance method was used.

A further series deals with T2, NT-4 (neurotrophin-4) (Homo sapiens, UniProt P34130 P34130:81-210).
T2 sequence: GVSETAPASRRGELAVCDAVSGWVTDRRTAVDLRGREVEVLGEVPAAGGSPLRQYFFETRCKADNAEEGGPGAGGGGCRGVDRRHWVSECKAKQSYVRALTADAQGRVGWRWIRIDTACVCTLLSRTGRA
The experiment in a line: cell_activity; TF-1. An excerpt:
Using TF-1 cells, whether NGF aptamer inhibits BDNF, NT-3, NT-4 was examined. Human receptor genes (TrkB, TrkC, p75) for respective neurotrophic factors were introduced into TF-1 cells (ATCC Number: CRL-2003), which is a human erythroleukemic cell line, by using a retrovirus vector to give cells that highly express these receptors stably. TF-1 cells introduced with TrkB and p75 were used for the evaluation of inhibitory activity against BDNF, TF-1 cells introduced with TrkC and p75 were used for the evaluation against NT-3, and TF-1 cells introduced with TrkB alone were used for the evaluation against NT-4. These cells were suspended in an RPMI-1640 medium containing 20% fetal bovine serum, and seeded in a white 96 well flat-bottom plate at 1000 cells (50 μL) per well. Thereto was added a mixed solution 50 μL of human BDNF (final concentration 0.074 nM) or NT-3 (final concentration 0.074 nM) or NT-4 (final concentration 0.071 nM) and the aptamer (final concentration 1 μM-0.01 nM), which had been pre-reacted at room temperature for 30 min in a serum-free RPMI-1640 medium, 3 days later, 100 μL of CellTiter-Glo reagent for CellTiter-Glo Luminescent Cell Viability Assay (manufactured by Promega) was added to each well, chemiluminescence was measured by a microplate reader. With the amount of luminescence per well obtained by the addition of BDNF or NT-3 or NT-4 alone and culture of the cells for 3 days as inhibitory activity 0%, and that of the well obtained by culture for 3 days without addition of BDNF or NT-3 or NT-4 as inhibitory activity 100%, the inhibitory activity of the aptamer was calculated from the amount of luminescence per well obtained by culturing with the addition of BDNF or NT-3 or NT-4 and the aptamer in mixture. When the inhibitory activity was 0 or below, ‘0%’ is indicated. The 50% inhibitory concentration (IC₅₀) was determined from the concentrations at two, above and below points sandwiching the 50% inhibitory activity. An IC₅₀ value indicated as “>X” means that the inhibitory activity was not more than 50% when the indicated concentration X was the maximum measured concentration. N.D. means not measured.

The target of series [2] is T1, NGF (nerve growth factor). The experiment in a line: cell_activity; neurite; TF-1 >1.
For series [3], the target named is T1, NGF (nerve growth factor). The experiment in a line: SPR; more than 40N control. This is another data set of the same source. A general note: In SPR one partner is held on a chip, and binding of the other changes the refractive index at the surface.

Numbering of substitutions follows the chain as printed.

T1 sequence (P01138 122-241, one chain of several): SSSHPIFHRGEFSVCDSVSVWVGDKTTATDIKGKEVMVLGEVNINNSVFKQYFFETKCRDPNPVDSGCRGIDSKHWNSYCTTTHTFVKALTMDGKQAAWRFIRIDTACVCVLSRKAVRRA

B1: SEQ ID NO: 36 (ssRNA)
RNA: GGGAGAACUUCGACCAGAAGGUACGUUAGUACGUUUGCAUAUGUACAACCUUGCAUACGAUACGUAGGUUAUGUGCGCAUACAUGGAUCCUC
modifications: 2'-F C/U, dA, 2'-OH G
In the case of B1, in series [1], the binding result is given as “binds”.

B2: SEQ ID NO: 29 (ssRNA)
RNA: GGGAGAACUUCGACCAGAAGUUCACAUCCUGCUGCGAAGUUUCCUUCUUCGUGGCUGUUAUGUGCGCAUACAUGGAUCCUC
modifications: 2'-F C/U, dA, 2'-OH G
As to B2, in series [1], the binding result was “binds”.

B3: SEQ ID NO: 30 (ssRNA)
RNA: GGGAGAACUUCGACCAGAAGUUGGCACAUCCUGCUGCGAAGGUUCCGUCUUCGUGGCUGUACUAUGUGCGCAUACAUGGAUCCUC
modifications: 2'-F C/U, dA, 2'-OH G
In the case of B3, the binding result in series [1] is reported as “binds”.

B4: SEQ ID NO: 82(55) (ssRNA)
RNA: GGGUCCUGGAUAAGAGUUUCCGUCUCGUAUCCUGUUACCC
modifications: as 82(25) except 5' PEG80TS4 instead of idT
B4: the IC50 (usually the concentration at which inhibition is half-maximal) with NT-4 (neurotrophin-4) is 14.3 nM.

B5: SEQ ID NO: 82(1) (ssRNA)
RNA: B4 RNA
modifications: 2'-OMe G (G8,G34 2'-OH), dA, 2'-F C/U; 5',3' idT
Turning to B5, the IC50 in the series with NT-4 (neurotrophin-4) was less than 100 nM.

B6: SEQ ID NO: 101 (ssRNA)
RNA: GGGUCCUGACGUAUAGUUUCCGUCUGUAUGUCUGUUACCC
modifications: 2'-F C/U, dA, 2'-OH G
B6: the IC50 in series [2] amounted to 0.994 nM.

B7: SEQ ID NO: 23 (ssRNA)
RNA: GGGAGAACUUCGACCAGAAGUGGCACAUCCUGCUGCGUAGUUUCCGUCUGCGUGGCUGUUAUGUGCGCAUACAUGGAUCCUC
modifications: 2'-F C/U, dA, 2'-OH G
In the case of B7, the binding result in series [1] is listed as “binds”.

B8: SEQ ID NO: 56 (ssRNA)
RNA: B7 RNA with G22U, C36U, G52A, C56U
modifications: 2'-F C/U, dA, 2'-OH G
As to B8, the binding result in series [3] was “binds”.

B9: SEQ ID NO: 26 (ssRNA)
RNA: B7 RNA with G50U, U53C
modifications: 2'-F C/U, dA, 2'-OH G
B9: the binding result in series [1] is “binds”.

B10: SEQ ID NO: 89 (ssRNA)
RNA: GGGUCCUGUGGAAGAGUUUCCGUCUCGUCCACUGUUACCC
modifications: 2'-F C/U, dA, 2'-OH G
Regarding B10, the IC50 in series [2] was determined as 0.959 nM.

B11: SEQ ID NO: 102 (ssRNA)
RNA: B10 RNA with U9A, G11C, G27A, C29G, A31U
modifications: 2'-F C/U, dA, 2'-OH G
In turn, B11 gave an IC50 in series [2] of 0.908 nM.

B12: SEQ ID NO: 22 (ssRNA)
RNA: GGGAGAACUUCGACCAGAAGUUGGCACAUCCUGCUGCGUAGUUUCCGUCUUCGUGGCUGUUAUGUGCGCAUACAUGGAUCCUC
modifications: 2'-F C/U, dA, 2'-OH G
For the molecule B12, the binding result in series [1] is reported as “binds”.

B13: SEQ ID NO: 48 (ssRNA)
RNA: B12 RNA with U39G, U51C, C52G
modifications: 2'-F C/U, dA, 2'-OH G
Turning to B13, in series [3], the binding result is recorded as “binds”.

B14: SEQ ID NO: 32 (ssRNA)
RNA: B12 RNA with U39G, G47U
modifications: 2'-F C/U, dA, 2'-OH G
For B14, the binding result in series [1] is recorded as “binds”.

B15: SEQ ID NO: 49 (ssRNA)
RNA: B12 RNA with G23U, U51A
modifications: 2'-F C/U, dA, 2'-OH G
Turning to B15, the binding result in series [3] is on record as “binds”.

B16: SEQ ID NO: 33 (ssRNA)
RNA: B12 RNA with U35C, C46A, G47A, C52G, U58G, G59U, U60G
modifications: 2'-F C/U, dA, 2'-OH G
B16: the binding result in series [1] was “binds”.

B17: SEQ ID NO: 54 (ssRNA)
RNA: B12 RNA with C34A, U51G, G56U
modifications: 2'-F C/U, dA, 2'-OH G
As for B17, the binding result in series [3] is “binds”.

B18: SEQ ID NO: 60 (ssRNA)
RNA: B12 RNA with G38A, U39G, U51C, C52G
modifications: 2'-F C/U, dA, 2'-OH G
As for B18, in series [3], the binding result was “binds”.

B19: SEQ ID NO: 59 (ssRNA)
RNA: B12 RNA with G23U, G47U, U51G, C57U
modifications: 2'-F C/U, dA, 2'-OH G
Turning to B19, the binding result in series [3] is reported as “binds”.

B20: SEQ ID NO: 55 (ssRNA)
RNA: B12 RNA with C34U, U51G
modifications: 2'-F C/U, dA, 2'-OH G
Consider B20, for which the binding result in series [3] is reported as “binds”.

B21: SEQ ID NO: 25 (ssRNA)
RNA: B12 RNA with U39C, U51A
modifications: 2'-F C/U, dA, 2'-OH G
As for B21, in series [1], the binding result is given as “binds”.

B22: SEQ ID NO: 31 (ssRNA)
RNA: B12 RNA with U39C, G47C, U51G
modifications: 2'-F C/U, dA, 2'-OH G
In the case of B22, in series [1], the binding result is “binds”.

B23: SEQ ID NO: 61 (ssRNA)
RNA: B12 RNA with G23A, U54C, C57U
modifications: 2'-F C/U, dA, 2'-OH G
Regarding B23, in series [3], the binding result is “binds”.

B24: SEQ ID NO: 35 (ssRNA)
RNA: B12 RNA with C34U, G47U, U51A
modifications: 2'-F C/U, dA, 2'-OH G
As for B24, the binding result in series [1] is reported as “binds”.

B25: SEQ ID NO: 34 (ssRNA)
RNA: B12 RNA with U35C, U51G
modifications: 2'-F C/U, dA, 2'-OH G
Turning to B25, the binding result in series [1] is “binds”.

B26: SEQ ID NO: 57 (ssRNA)
RNA: B12 RNA with U22A, A28G, G38A, U51G, C52U
modifications: 2'-F C/U, dA, 2'-OH G
In the case of B26, the binding result in series [3] is “binds”.

B27: SEQ ID NO: 53 (ssRNA)
RNA: B12 RNA with G23U, U39C, U51A
modifications: 2'-F C/U, dA, 2'-OH G
B27: the binding result in series [3] is given as “binds”.

B28: SEQ ID NO: 50 (ssRNA)
RNA: B12 RNA with U21C, C34U, U51A, G56A
modifications: 2'-F C/U, dA, 2'-OH G
On to B28, for which, in series [3], the binding result was “binds”.

B29: SEQ ID NO: 51 (ssRNA)
RNA: B12 RNA with U29C, G36A, U39G, U51C, C52G
modifications: 2'-F C/U, dA, 2'-OH G
As for B29, the binding result in series [3] is recorded as “binds”.

B30: SEQ ID NO: 37 (ssRNA)
RNA: B12 RNA with G36A, G47U
modifications: 2'-F C/U, dA, 2'-OH G
As to B30, the binding result in series [1] was “binds”.

B31: SEQ ID NO: 24 (ssRNA)
RNA: B12 RNA with U39A, U51C
modifications: 2'-F C/U, dA, 2'-OH G
For B31, the binding result in series [1] is on record as “binds”.

B32: SEQ ID NO: 28 (ssRNA)
RNA: B12 RNA with G47A, U51G
modifications: 2'-F C/U, dA, 2'-OH G
Take B32: the binding result in series [1] is listed as “binds”.

B33: SEQ ID NO: 58 (ssRNA)
RNA: B12 RNA with G24A, U51G, C57U
modifications: 2'-F C/U, dA, 2'-OH G
As to B33, in series [3], the binding result is listed as “binds”.

B34: SEQ ID NO: 52 (ssRNA)
RNA: B12 RNA with G38A, C52U
modifications: 2'-F C/U, dA, 2'-OH G
Take B34: the binding result in series [3] was “binds”.

B35: SEQ ID NO: 27 (ssRNA)
RNA: B12 RNA with U39C, U51G
modifications: 2'-F C/U, dA, 2'-OH G
Turning to B35, in series [1], the binding result was “binds”.
